Biological target: gHgLgO249 complex of 131stop-gO249 virions (human cytomegalovirus, strain TB40/E)
Experiment: co-IP + pull-down; gB co-precipitated with gHgLgO from 131stop and 131stop-gO249 virion lysates using anti-gH antibody 14-4b or PDGFRα-Fc; WB, ImageJ; gO precipitation levels normalized and relative gB levels determined

“glycoprotein gB of HCMV virions (natural protein)” gave a fold change of co-precipitated gB against gHgLgOWT of 4 fold.
